One assay deals with T1, L-Malate dehydrogenase (UniProt P00346).
T1 sequence: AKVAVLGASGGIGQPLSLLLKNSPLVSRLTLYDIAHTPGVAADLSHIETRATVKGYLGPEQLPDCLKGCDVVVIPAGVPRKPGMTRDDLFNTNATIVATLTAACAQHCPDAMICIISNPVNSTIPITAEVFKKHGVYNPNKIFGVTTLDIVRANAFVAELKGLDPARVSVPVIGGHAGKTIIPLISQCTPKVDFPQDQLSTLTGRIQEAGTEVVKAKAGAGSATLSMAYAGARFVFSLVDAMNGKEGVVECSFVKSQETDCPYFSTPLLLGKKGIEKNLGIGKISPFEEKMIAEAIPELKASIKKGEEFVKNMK

Positions count from the first letter of the chain named. Numbers in names are those of the source.

B1: HspB5 F113Y (natural protein)
chain: MDIAIHHPWIRRPFFPFHSPSRLFDQFFGEHLLESDLFPTSTSLSPFYLRPPSFLRAPSWFDTGLSEMRLEKDRFSVNLDVKHFSPEELKVKVLGDVIEVHGKHEERQDEHGYISREFHRKYRIPADVDPLTITSSLSSDGVLTVNGPRKQVSGPERTIPITREEKPAVTAAPKK
On to B1, for which the DTT-induced aggregation of insulin with F113Y (5:1 substrate to sHsp), reduction in the peak level of light scattering at 340 nm with insulin was > 50%.

B2: HspB5 R116C (natural protein)
chain: B1 chain with Y113F, R116C
Molecule B2 had a heat-induced (55 °C) aggregation of MDH with R116C, reduction of light scatter at 340 nm against substrate alone with L-Malate dehydrogenase of 16%.

Source of the values: PMC10778692.
